# Assay results taken from the supplement of paper PMC10567573.
# B1: SPATS1 (parent)
# chain: YPEQSKGFHKAGSMLPPVNFSIVP
# Variants of: B1
# Assay: protein stability index of a GFP-peptide fusion (GPS, HEK-293T) (PSI 1-6); higher = more stable
# Conditions: c terminus: a fixed tail appended
# 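Also: lentivirally expressed fusions sorted by FACS into six bins by GFP to DsRed ratio, PSI derived from sequencing read proportions per bin multiplied by bin number.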
row,Variant,protein stability index
1,YPEQSKGFHKAGSMLPPVNFSDVP,2.47
2,YPEQSKGFHKAGSMLPPVNFSWVP,1.24
3,YPEQSKGFHKAGSMLPPVNFSFVP,1.97
4,YPEQSKGFHKAGSMLPPVNFSMVP,2.04
5,YPEQSKGFHKAGSMLPPVNFSTVP,2.53
6,YPEQSKGFHKAGSMLPPVNFSVVP,1.82
7,YPEQSKGFHKAGSMLPPVNFSNVP,2.31
8,YPEQSKGFHKAGSMLPPVNFSQVP,2.26
9,YPEQSKGFHKAGSMLPPVNFSHVP,1.75
10,YPEQSKGFHKAGSMLPPVNFSSVP,2.48
11,YPEQSKGFHKAGLMLPPVNFSIVP,1.88
12,YPEQSKGFHKAGMMLPPVNFSIVP,1.69
13,YPEQSKGFHKAGNMLPPVNFSIVP,2.13
14,YPEQSKGFHKAGRMLPPVNFSIVP,2.15
15,YPEQSKGFHKAGAMLPPVNFSIVP,1.68
16,YPEQSKGFHKAGGMLPPVNFSIVP,1.85
17,YPEQSKGFHKAGIMLPPVNFSIVP,1.74
18,YPEQSKGFHKAGSMLPPVNFEIVP,1.94
19,YPEQSKGFHKAGSMLPPVNFKIVP,2.15
20,YPEQSKGFHKAGSMLPPVNFWIVP,2.43
21,YPEQSKGFHKAGSMLPPVNFLIVP,2.08
22,YPEQSKGFHKAGSMLPPVNFHIVP,1.49
23,YPEQSKGFHKAGSMLPPVNFMIVP,2.06
24,YPEQSKGFHKAGSMLPPVNFVIVP,2.24

row,Variant,protein stability index
1,YPEQSKGFHKAGSMLPPVNFRIVP,1.8
2,YPEQSKGFHKAGSMLPPVNFDIVP,1.87
3,YPEQSKGFHKAGSMLPPVNFIIVP,2.13
4,YPEQSKGFHKAGSMLPPVNFGIVP,1.81
5,YPEQSKGFHKAGSMCPPVNFSIVP,2.05
6,YPEQSKGFHKAGSMIPPVNFSIVP,1.84
7,YPEQSKGFHKAGSMFPPVNFSIVP,1.84
8,YPEQSKGFHKAGSMYPPVNFSIVP,2.42
9,YPEQSKGFHKAGSMEPPVNFSIVP,2.37
10,YPEQSKGFHKAGSMRPPVNFSIVP,1.9
11,YPEQSKGFHKAGSMLPPVCFSIVP,1.56
12,YPEQSKGFHKAGSMLPPVSFSIVP,2.43
13,YPEQSKGFHKAGSMLPPVGFSIVP,1.74
14,YPEQSKGFHKAGSMLPPVRFSIVP,1.85
15,YPEQSKGFHKAGSMLPPVKFSIVP,1.82
16,YPEQSKGFHKAGSMLPPVQFSIVP,1.87
17,YPEQSKGFHKAGSMLPPVFFSIVP,2.48
18,YPEQSKGFHKAGSMLPPVYFSIVP,2.26
19,YPEQSKGFHKAGSMLPPVVFSIVP,2.07
20,YPEQSKGFHKAGSMLPPVLFSIVP,2.24
21,YPEQSKGFHKAGSMLPPVDFSIVP,1.97
22,YPEQSKGFHKAGSMLPPVAFSIVP,2.17
23,YPEQSKGCHKAGSMLPPVNFSIVP,2.78
24,YPEQSKGGHKAGSMLPPVNFSIVP,3.58

row,Variant,protein stability index
1,YPEQSKGPHKAGSMLPPVNFSIVP,3.39
2,YPEQSKGFHKLGSMLPPVNFSIVP,1.55
3,YPEQSKGFHKGGSMLPPVNFSIVP,1.98
4,YPEQSKGFHKFGSMLPPVNFSIVP,2.1
5,YPEQSKGFHKMGSMLPPVNFSIVP,1.84
6,YPEQSKGFHKTGSMLPPVNFSIVP,1.83
7,YPEQSKGFHKNGSMLPPVNFSIVP,1.81
8,YPEQSKGFHKEGSMLPPVNFSIVP,2.78
9,YPEQSKGFHKRGSMLPPVNFSIVP,2.33
10,YPEQSKGFHKAGSQLPPVNFSIVP,2.08
11,YPEQSKGFHKAGSGLPPVNFSIVP,1.97
12,YPEQSKGFHKAGSILPPVNFSIVP,1.83
13,YPEQSKGFHKAGSHLPPVNFSIVP,1.87
14,YPEQSKGFHKAGSDLPPVNFSIVP,1.96
15,YPEQSFGFHKAGSMLPPVNFSIVP,2.1
16,YPEQSQGFHKAGSMLPPVNFSIVP,1.71
17,YPEQSRGFHKAGSMLPPVNFSIVP,1.71
18,YPEQSEGFHKAGSMLPPVNFSIVP,2.41
19,YPEQSVGFHKAGSMLPPVNFSIVP,1.67
20,YPEQSDGFHKAGSMLPPVNFSIVP,2.29
21,YPEQSTGFHKAGSMLPPVNFSIVP,1.92
22,YPEQSYGFHKAGSMLPPVNFSIVP,1.93
23,YPEQSNGFHKAGSMLPPVNFSIVP,1.91
24,YPEQSKGFHKAGSMLPEVNFSIVP,1.85

row,Variant,protein stability index
1,YPEQSKGFHKAGSMLPVVNFSIVP,2.22
2,YPEQSKGFHKAGSMLPQVNFSIVP,1.76
3,YPEQSKGFHKAGSMLPHVNFSIVP,2.75
4,YPEQSKGFHKAGSMLPNVNFSIVP,1.9
5,YPEQSKGFHKAGSMLPSVNFSIVP,1.94
6,YPEQSKGFHKAGSMLPRVNFSIVP,1.61
7,YPEQSKGFHKAGSMLPIVNFSIVP,1.75
8,SPEQSKGFHKAGSMLPPVNFSIVP,3.36
9,WPEQSKGFHKAGSMLPPVNFSIVP,2.69
10,VPEQSKGFHKAGSMLPPVNFSIVP,3.31
11,KPEQSKGFHKAGSMLPPVNFSIVP,3.38
12,TPEQSKGFHKAGSMLPPVNFSIVP,3.22
13,RPEQSKGFHKAGSMLPPVNFSIVP,3.04
14,HPEQSKGFHKAGSMLPPVNFSIVP,3.18
15,APEQSKGFHKAGSMLPPVNFSIVP,3.35
16,NPEQSKGFHKAGSMLPPVNFSIVP,3.52
17,YPEQSKLFHKAGSMLPPVNFSIVP,2.24
18,YPEQSKWFHKAGSMLPPVNFSIVP,1.7
19,YPEQSKSFHKAGSMLPPVNFSIVP,1.9
20,YPEQSKHFHKAGSMLPPVNFSIVP,1.43
21,YPEQSKTFHKAGSMLPPVNFSIVP,3.08
22,YPEQSKEFHKAGSMLPPVNFSIVP,1.63
23,YPEQSKDFHKAGSMLPPVNFSIVP,2.86
24,YPEQSKYFHKAGSMLPPVNFSIVP,2.14

row,Variant,protein stability index
1,YPEQSKFFHKAGSMLPPVNFSIVP,2.12
2,YPEQSKGFHKAGSMLFPVNFSIVP,1.98
3,YPEQSKGFHKAGSMLSPVNFSIVP,1.43
4,YPEQSKGFHKAGSMLTPVNFSIVP,1.9
5,YPEQSKGFHKAGSMLMPVNFSIVP,1.52
6,YPEQSKGFHKAGSMLNPVNFSIVP,1.65
7,YPEQSKGFHKAGSMLRPVNFSIVP,1.99
8,YPEQSKGFHKAGSMLDPVNFSIVP,1.94
9,YPEQSKGFHKAGSMLPPENFSIVP,1.81
10,YPEQSKGFHKAGSMLPPKNFSIVP,2.06
11,YPEQSKGFHKAGSMLPPYNFSIVP,1.91
12,YPEQSKGFHKAGSMLPPPNFSIVP,2.19
13,YPEQSKGFHKAGSMLPPINFSIVP,1.84
14,YPEQSKGFHKAGSMLPPLNFSIVP,1.28
15,YPEQSKGFHKAGSMLPPDNFSIVP,2.26
16,YPEQSKGFHKAGSMLPPANFSIVP,2.56
17,YPEQMKGFHKAGSMLPPVNFSIVP,2.37
18,YPEQEKGFHKAGSMLPPVNFSIVP,2.69
19,YPEQCKGFHKAGSMLPPVNFSIVP,1.96
20,YPEQYKGFHKAGSMLPPVNFSIVP,2.1
21,YPEQGKGFHKAGSMLPPVNFSIVP,2.52
22,YPEQIKGFHKAGSMLPPVNFSIVP,2.2
23,YPEQFKGFHKAGSMLPPVNFSIVP,2.3
24,YPEQTKGFHKAGSMLPPVNFSIVP,2.23

row,Variant,protein stability index
1,YPEQSKGFHKAGSMLPPVNFSIGP,1.98
2,YPEQSKGFHKAGSMLPPVNFSIQP,2.26
3,YPEQSKGFHKAGSMLPPVNFSINP,2.35
4,YPEQSKGFHKAGSMLPPVNFSILP,1.94
5,YPEQSKGFHKAGSMLPPVNFSITP,1.74
6,YPEQSKGFHKAGSMLPPVNFSICP,1.8
7,YPEQSKGFHKAGSMLPPVNFSIEP,2.42
8,YPEQSKGFHKADSMLPPVNFSIVP,2.08
9,YPEQSKGFHKAQSMLPPVNFSIVP,1.66
10,YPEQSKGFHKACSMLPPVNFSIVP,2.75
11,YPEQSKGFHKAFSMLPPVNFSIVP,1.64
12,YPEQSKGFHKAVSMLPPVNFSIVP,1.79
13,YPEQSKGFHKANSMLPPVNFSIVP,1.94
14,YPEQSKGFHKAASMLPPVNFSIVP,1.76
15,YPEQSKGFHKALSMLPPVNFSIVP,2.24
16,YPEQSKGFWKAGSMLPPVNFSIVP,3.39
17,YPEQSKGFNKAGSMLPPVNFSIVP,2.75
18,YPEQSKGFPKAGSMLPPVNFSIVP,2.19
19,YPEQSKGFEKAGSMLPPVNFSIVP,2.81
20,YPEQSKGFAKAGSMLPPVNFSIVP,2.1
21,YPEQSKGFGKAGSMLPPVNFSIVP,2.13
22,YPEQSKGFIKAGSMLPPVNFSIVP,2.38
23,YPEQSKGFFKAGSMLPPVNFSIVP,4.31
24,YPEQSKGFKKAGSMLPPVNFSIVP,2.56

row,Variant,protein stability index
1,YPEQSKGFMKAGSMLPPVNFSIVP,2.14
2,YPEQSKGFCKAGSMLPPVNFSIVP,1.82
3,YPEQSKGFVKAGSMLPPVNFSIVP,2.13
4,YEEQSKGFHKAGSMLPPVNFSIVP,3.33
5,YGEQSKGFHKAGSMLPPVNFSIVP,1.8
6,YFEQSKGFHKAGSMLPPVNFSIVP,1.77
7,YIEQSKGFHKAGSMLPPVNFSIVP,1.83
8,YREQSKGFHKAGSMLPPVNFSIVP,2.57
9,YCEQSKGFHKAGSMLPPVNFSIVP,1.62
10,YPNQSKGFHKAGSMLPPVNFSIVP,2.39
11,YPPQSKGFHKAGSMLPPVNFSIVP,2.09
12,YPAQSKGFHKAGSMLPPVNFSIVP,1.78
13,YPWQSKGFHKAGSMLPPVNFSIVP,2.01
14,YPVQSKGFHKAGSMLPPVNFSIVP,1.76
15,YPEQSKGFHLAGSMLPPVNFSIVP,2.88
16,YPEQSKGFHWAGSMLPPVNFSIVP,3.61
17,YPEQSKGFHIAGSMLPPVNFSIVP,1.7
18,YPEQSKGFHYAGSMLPPVNFSIVP,2.15
19,YPEQSKGFHPAGSMLPPVNFSIVP,2
20,YPEQSKGFHRAGSMLPPVNFSIVP,2.47
21,YPEQSKGFHKAGSMLPPVNISIVP,1.73
22,YPEQSKGFHKAGSMLPPVNASIVP,2.26
23,YPEQSKGFHKAGSMLPPVNGSIVP,1.71
24,YPEQSKGFHKAGSMLPPVNCSIVP,2.13

row,Variant,protein stability index
1,YPEQSKGFHKAGSMLPPVNDSIVP,2.39
2,YPEQSKGFHKAGSMLPPVNVSIVP,2.88
3,YPEQSKGFHKAGSMLPPVNFSIVT,3.33
4,YPEQSKGFHKAGSMLPPVNFSIVW,3.28
5,YPEQSKGFHKAGSMLPPVNFSIVI,3.47
6,YPEQSKGFHKAGSMLPPVNFSIVN,1.84
7,YPEQSKGFHKAGSMLPPVNFSIVC,1.65
8,YPEQSKGFHKAGSMLPPVNFSIVQ,1.75
9,YPEQSKGFHKAGSMLPPVNFSIVS,1.94
10,YPEQSKGFHKAGSMLPPVNFSIVR,1.82
11,YPEQSKGFHKAGSMLPPVNFSIVY,2.08
12,YPEQSKGFHKAGSMLPPVNFSIVH,1.53
13,YPEQSKGFHKAGSMLPPVNFSIVV,1.46
14,YPEDSKGFHKAGSMLPPVNFSIVP,2.71
15,YPEGSKGFHKAGSMLPPVNFSIVP,1.89
16,YPELSKGFHKAGSMLPPVNFSIVP,1.81
17,YPEFSKGFHKAGSMLPPVNFSIVP,3.4
18,YPETSKGFHKAGSMLPPVNFSIVP,1.8
19,YPEASKGFHKAGSMLPPVNFSIVP,3.18
20,YPEHSKGFHKAGSMLPPVNFSIVP,2.29
